Measured values as given in patent US20130059772A1, “Use of Repeat Sequence Protein Polymers in Personal Care Compositions” (DANISCO US INC., priority 2003, published 2013).

Columns and labels:
elastin = assay: Elastin assay (Fastin colorimetric assay of culture media); type: cell-based, human; details: 48 hours, spent fibroblast media, untreated 69 ± 2
Procedure: Elastin is released by fibroblasts (soluble elastin) into the extracellular space where it is then cross-linked to other elastin proteins to form an extensive network of fibers and sheets (insoluble elastin). Soluble elastin can be readily measured from cell culture medium via a colorimetric assay.
(§1) The test materials were tested in triplicate.
In these experiments, the Biocolor Fastin Elastin Assay kits were used. A 50 μl aliquot of sample material (cell culture medium for soluble elastin) was mixed with 1.0 ml of cold Fastin Precipitating Reagent in a 1.5-ml microcentrifuge tube. In addition to the spent media samples from the fibroblasts, 50 μl aliquots of the test materials diluted into fresh culture media at the concentrations used in the study were also assayed for elastin content. The sample/Fastin Precipitating Reagent mixture was then incubated overnight in an ice water bath to precipitate the elastin. On the following day, the cold microcentrifuge tubes were spun at 10,000×g for 10 minutes to pack the precipitated elastin and the supernatant was removed via careful aspiration.
One (1) ml of Fastin Dye Reagent, along with 100 μl of 90% saturated ammonium sulphate was added to each tube. The microcentrifuge tubes were mixed with a vortex mixer and then allowed to incubate for at least 60 minutes at room temperature, with gentle mechanical agitation. The Fastin Dye Reagent interacts with unique amino acid sequences in the elastin protein. This elastin-dye complex precipitates in the presence of ammonium sulphate. After the incubation was over, the microcentrifuge tubes were spun at 10,000×g for 10 minutes to separate the precipitated elastin-dye complex from the unbound dye. The supernatant was carefully removed and the tubes were inverted to allow any residual supernatant to drain out.
To release the elastin-bound dye, 1.0 ml of Fastin Destain reagent was added to each microcentrifuge tube. The tubes were capped as quickly as possible, as this reagent contains ammonia and methanol. The tubes were then vortexed. The absorbance of this solution was measured by a plate reader at 490 nm (200 μl volume read).
An elastin standard curve was generated using 12.5, 25, and 50 μg aliquots of an Elastin Standard into microcentrifuge tubes (in duplicate). These samples were treated as described above (Elastin Assay) and the absorbance values were used to generate a standard curve of known concentrations. To derive the standard curve for the elastin assay, the absorbance was plotted against the elastin concentration in μg/ml for the standards. […] Mean absorbance values for the test materials and untreated samples were then used to estimate the amount of elastin present in each sample.

[1] = system: procollagen type I C-peptide; assay: Procollagen assay (type I C-peptide ELISA of fibroblast culture media); type: cell-based, human; details: 48 hours, untreated 873 ± 111
Source text: Collagen is synthesized as part of a much larger procollagen peptide. As the peptide is processed to form a mature collagen protein, the propeptide portion is cleaved off (type I C-peptide). Both the mature collagen protein and the type I C-peptide fragment are then released into the extracellular environment and accumulate in the culture media. Since there is a 1:1 stoichiometric ratio between the two parts of the procollagen peptide, assaying for type I C-peptide will reflect the amount of collagen synthesized. Type 1 C-peptide can be assayed via an ELISA based method.
as §1
Takara procollagen type IC-peptide ELISA kits were used in these experiments. A series of type I C-peptide standards was prepared ranging from 40 ng/ml to 640 ng/ml. An ELISA microplate was then prepared by removing any unneeded strips from the plate frame. To each well in the plate 100 μl of peroxidase-labeled anti procollagen type I-C peptide was added, followed by 20 μA of either sample (tissue culture media) or standard. The microplate was covered and allowed to incubate for 3±0.25 hours at 37° C. After the incubation period, each well was aspirated and washed three times with 400 μl of wash buffer. After the last wash was removed, 100 μl of peroxidase substrate solution (hydrogen peroxide containing tetramethylbenzidine as a chromagen) were added to each well and the plate was incubated for 15±5 minutes at room temperature. After the incubation period, 100 μA of stop solution (1 N sulfuric acid) was added to each well and the plate was read using a microplate reader at 450 nm. To quantify the amount of procollagen present, a standard curve was generated using known concentrations of procollagen type 1-C peptide. […] Mean absorbance values for the test materials and untreated samples was then used to estimate the amount of procollagen type 1-C peptide present in each sample.

[2] = system: Fibroblasts (HDFn Cell Line); assay: Initial pilot cell viability dose response (MTT assay); details: for effect on the number of viable cells: initial dose response, summary in words; for cell viability, percent of untreated cells: 48 hours
Procedure: Initial screening was conducted to identify a test range suitable to determine the effect of a broad range of test material concentrations on cell viability. […] Cultured fibroblasts were exposed to the test materials for 48 hours and then changes in cell viability were determined using an MTT assay (i.e., a colorimetric analysis of the metabolic activity of the cultured cells, described in greater detail below).
The purple crystals are extracted from the cells with isopropanol and the amount of crystal formation quantified spectrophotometrically. […] A decrease in color intensity can be a sign of toxicity.
Fibroblasts (Cascade Biologics, HDFn Cell Line, lot#1C0914) were seeded into the individual wells of either a 96-well plate (for the initial pilot work to determine concentration effects on cell viability) in 100 μl of Fibroblast Growth Media (FGM) or in 12-well plates (for the measurement of collagen, elastin and MMP-1) in 1.0 ml of FGM and incubated overnight at 37±2° C. and 5±1% CO2. On the following day, the medium was removed via aspiration to eliminate any non-adherent cells and replaced with fresh FGM. The cells were grown until confluent, with a media change every 48 to 72 hours. Upon reaching confluency, the cells were treated for 24 hours with Dulbecco's Modified Essential Media (DMEM) supplemented with 1.5% FBS to wash out any effects from the growth factors included in the normal FGM. After this 24-hour wash out period, the cells were treated with the test materials at the specified concentrations dissolved in DMEM with 1.5% FBS. Untreated cells (negative controls) received DMEM with 1.5% FBS. The cells were incubated for 48 hours and at the end of the incubation period cell culture medium was either discarded (pilot work) or collected and stored frozen at −75° C. The test materials were tested in triplicate.
After the 2-day incubation, the cell culture medium was removed and the fibroblasts were washed twice with PBS to remove any remaining test material. After the final wash, either 100 μl (96-well plates) or 300 μl (12-well plates) of DMEM supplemented with 0.5 mg/ml MTT were added to each well and the cells were incubated for 1 hour at 37±2° C. and 5±1% CO2. After the incubation, the DMEM/MTT solution was removed and the cells were washed again once with PBS and then either 100 μl (96-well plates) or 1 ml (12-well plates) of isopropyl alcohol were added to each well to extract the purple formazin crystals. For the 12-well plates, two hundred microliters of the isopropyl extracts was transferred to a 96-well plate. The 96-well plates were read at 540 nm using isopropyl alcohol as a blank. The mean MTT absorbance value for the negative control cells was calculated and used to represent 100% value for cell viability. The individual MTT values from the cells undergoing the various treatments were then divided by the mean value for the negative control cells and expressed as a percent, to determine the change in cell viability caused by each treatment.

MMP-1 = MMP-1 assay (fluorometric ELISA of fibroblast culture media); type: cell-based, human; details: for MMP-1 Activity: 48 hours, untreated 0.11 ± 0.05; for effect on MMP-1 activity: summary in words
Procedure: MMP-1 is a zinc and calcium dependent endopeptidase that is produced and released from both dermal fibroblasts and keratinocytes, and functions to break down collagens located in the extracellular matrix. Active MMP-1 released into the culture media can be assayed using a fluorescence-based ELISA. […] To quantify the active MMP-1 a fluorogenic substrate linked to a quencher molecule is added and any active MMP-1 present will cleave the peptide linkage between the fluorophore and the quencher molecule. This cleavage will eliminate the quencher molecules ability to inhibit the fluorescent signal of the fluorophore allowing a fluorescent signal that will be proportional to the amount of active MMP-1 present.
as §1
R&D Products MMP-1 Fluorokine E fluorometric ELISA kits were used in these experiments. A series of MMP-1 standards was prepared ranging from 0.39 ng/ml to 25 ng/ml and an ELISA microplate was prepared by removing any unneeded strips from the plate frame. In each well, 200 μA of Assay Diluent RD1-64 and 50 μA of each sample were added. For the standards, 100 μl of Assay Diluent RD1-64 and 150 μl of each respective standard were added. The plate was incubated for 3±0.25 hours at room temperature on a rocking platform. At the end of the incubation period, each well was aspirated and then washed four times with 400 μl of wash buffer. […] After the incubation period, the plate was washed four times as described above. After the last wash, 200 μl of substrate solution were added to each well and the plate was incubated for 17-20 hours at 37±2° C. (protected from light). At the end of the incubation period, the fluorescence intensity was measured (excitation 320 nm, emission 405 nm) using a fluorometer using a 20 mS integration time. To quantify the amount of MMP-1 activity, a standard curve was generated using known activity levels of MMP-1. […] Mean absorbance values for the test materials and untreated samples were then used to estimate the amount of MMP-1 activity present in each sample.

[3] = system: cultured dermal fibroblasts; assay: UVB protection, initial MTT assay (material applied after UVB); details: 0.14%, −UVB condition
Procedure: In these experiments, the test material was tested at six concentrations with two duplicate sets of cells prepared. […] Changes in cell viability were then determined 48 hours post material application via an MTT assay, as described above.
Fibroblasts were seeded into the individual wells of a 96 well plate in 100 μl FGM, and incubated overnight at 37±2° C. and 5±1% CO2. On the following day, the media were removed via aspiration to eliminate any non-adherent cells and replaced with 100 μl of fresh FGM. The cells were grown until confluent, with a media change every 48 to 72 hours.
An UVLM-26 lamp was used as the source of UVB light. UV light intensity was measured using a UVX radiometer coupled to a UVB sensor probe (UV Products) to determine the time required to deliver an approximate dose of 50 mj/cm^2. Prior to UVB exposure, the FGM was replaced with 100 μl PBS. After exposure, the PBS was removed and replaced with FGM supplemented with either the test materials, 20 μM Trolox, or left unsupplemented. A duplicate set of cells was also prepared and treated as described above, with the exception that they were not exposed to UVB light. […] The cells were allowed to incubate with the test materials for 48 hours, and then changes in cell viability were determined via an MTT assay. […]
After the 48-hour incubation, the cell culture medium was removed and the fibroblasts were washed with PBS to remove any remaining test material. […] The 96-well plate was then read at 540 nm using isopropyl alcohol as a blank.
The mean MTT absorbance value for the negative control cells (non-UVB exposed and non test material treated cells) was calculated and used to represent 100% value for cell number. The individual MTT values from the cells undergoing the various treatments was then divided by the mean value for the negative control cells and expressed as a percent, to determine the change in cell viability caused by each treatment. MTT scores for each treatment are expressed as means±the standard deviation of the mean.

B1: GC2596-26-E: collagen-like repeat sequence protein polymer, head-[(GAHGPAGPK)2(GAQGPAGPG)24(GAHGPAGPK)2]4-tail; SEQ ID NO:34 (Example 5) (protein)
chain: MDPVVLQRRDWENPGVTQLNRLAAHPPFASDPMGAHGPAGPKGAHGPAGPKGAQGPAGPGGAQGPAGPGGAQGPAGPGGAQGPAGPGGAQGPAGPGGAQGPAGPGGAQGPAGPGGAQGPAGPGGAQGPAGPGGAQGPAGPGGAQGPAGPGGAQGPAGPGGAQGPAGPGGAQGPAGPGGAQGPAGPGGAQGPAGPGGAQGPAGPGGAQGPAGPGGAQGPAGPGGAQGPAGPGGAQGPAGPGGAQGPAGPGGAQGPAGPGGAQGPAGPGGAHGPAGPKGAHGPAGPKGAHGPAGPKGAHGPAGPKGAQGPAGPGGAQGPAGPGGAQGPAGPGGAQGPAGPGGAQGPAGPGGAQGPAGPGGAQGPAGPGGAQGPAGPGGAQGPAGPGGAQGPAGPGGAQGPAGPGGAQGPAGPGGAQGPAGPGGAQGPAGPGGAQGPAGPGGAQGPAGPGGAQGPAGPGGAQGPAGPGGAQGPAGPGGAQGPAGPGGAQGPAGPGGAQGPAGPGGAQGPAGPGGAQGPAGPGGAHGPAGPKGAHGPAGPKGAHGPAGPKGAHGPAGPKGAQGPAGPGGAQGPAGPGGAQGPAGPGGAQGPAGPGGAQGPAGPGGAQGPAGPGGAQGPAGPGGAQGPAGPGGAQGPAGPGGAQGPAGPGGAQGPAGPGGAQGPAGPGGAQGPAGPGGAQGPAGPGGAQGPAGPGGAQGPAGPGGAQGPAGPGGAQGPAGPGGAQGPAGPGGAQGPAGPGGAQGPAGPGGAQGPAGPGGAQGPAGPGGAQGPAGPGGAHGPAGPKGAHGPAGPKGAHGPAGPKGAHGPAGPKGAQGPAGPGGAQGPAGPGGAQGPAGPGGAQGPAGPGGAQGPAGPGGAQGPAGPGGAQGPAGPGGAQGPAGPGGAQGPAGPGGAQGPAGPGGAQGPAGPGGAQGPAGPGGAQGPAGPGGAQGPAGPGGAQGPAGPGGAQGPAGPGGAQGPAGPGGAQGPAGPGGAQGPAGPGGAQGPAGPGGAQGPAGPGGAQGPAGPGGAQGPAGPGGAQGPAGPGGAHGPAGPKGAHGPAGPKMDPGRYQLSAGRYHYQLVWCQK
modifications: silk-elastin repeat sequence protein copolymer
Elastin (elastin; 0.001%): 63 ± 10 μg/ml media | Elastin (elastin; 0.005%): 59 ± 5 μg/ml media | Elastin (elastin; 0.01%): 50 ± 18 μg/ml media | Type-1 C Peptide ([1]; 0.001%): 838 ± 75 ng/mL | Type-1 C Peptide ([1]; 0.005%): 1162 ± 194 ng/mL | Type-1 C Peptide ([1]; 0.01%): 956 ± 110 ng/mL | effect on the number of viable cells [2]: reduce the number of viable cells | MMP-1 Activity (MMP-1; 0.001%): 0.04 ± 0.05 ng/mL | MMP-1 Activity (MMP-1; 0.005%): -0.01 ± 0.02 ng/mL | MMP-1 Activity (MMP-1; 0.01%): 0.00 ± 0.02 ng/mL | effect on MMP-1 activity (MMP-1): almost complete loss of detectable MMP-1 activity

B2: GC2596-26-D: SELP47K modified with two units of ALSYP (SEQ ID NO:36) peptides in each SELP47K unit; SEQ ID NO:32 (Example 4) (protein)
chain: MDPVVLQRRDWENPGVTQLNRLAAHPPFASDPMGAGAGSGAGAGSALSYPGVGVPGVGVPGVGVPGVGVPGKGVPGVGVPGVGVPGVGVPALSYPGAGAGSGAGAGSGAGAGSGAGAGSALSYPGVGVPGVGVPGVGVPGVGVPGKGVPGVGVPGVGVPGVGVPALSYPGAGAGSGAGAGSGAGAGSGAGAGSALSYPGVGVPGVGVPGVGVPGVGVPGKGVPGVGVPGVGVPGVGVPALSYPGAGAGSGAGAGSGAGAGSGAGAGSALSYPGVGVPGVGVPGVGVPGVGVPGKGVPGVGVPGVGVPGVGVPALSYPGAGAGSGAGAGSGAGAGSGAGAGSALSYPGVGVPGVGVPGVGVPGVGVPGKGVPGVGVPGVGVPGVGVPALSYPGAGAGSGAGAGSGAGAGSGAGAGSALSYPGVGVPGVGVPGVGVPGVGVPGKGVPGVGVPGVGVPGVGVPALSYPGAGAGSGAGAGSGAGAGSGAGAGSALSYPGVGVPGVGVPGVGVPGVGVPGKGVPGVGVPGVGVPGVGVPALSYPGAGAGSGAGAGSGAGAGSGAGAGSALSYPGVGVPGVGVPGVGVPGVGVPGKGVPGVGVPGVGVPGVGVPALSYPGAGAGSGAGAGSGAGAGSGAGAGSALSYPGVGVPGVGVPGVGVPGVGVPGKGVPGVGVPGVGVPGVGVPALSYPGAGAGSGAGAGSGAGAGSGAGAGSALSYPGVGVPGVGVPGVGVPGVGVPGKGVPGVGVPGVGVPGVGVPALSYPGAGAGSGAGAGSGAGAGSGAGAGSALSYPGVGVPGVGVPGVGVPGVGVPGKGVPGVGVPGVGVPGVGVPALSYPGAGAGSGAGAGSGAGAGSGAGAGSALSYPGVGVPGVGVPGVGVPGVGVPGKGVPGVGVPGVGVPGVGVPALSYPGAGAGSGAGAGSGAGAGSGAGAGSALSYPGVGVPGVGVPGVGVPGVGVPGKGVPGVGVPGVGVPGVGVPALSYPGAGAGSGAGAGSGAGAMDPGRYQDLRSHHHHHH
modifications: SELP 47K-P4
Elastin (elastin; 0.0014%): 72 ± 12 μg/ml media | Elastin (elastin; 0.007%): 69 ± 4 μg/ml media | Elastin (elastin; 0.014%): 68 ± 10 μg/ml media | Type-1 C Peptide ([1]; 0.0014%): 894 ± 156 ng/mL | Type-1 C Peptide ([1]; 0.007%): 908 ± 94 ng/mL | Type-1 C Peptide ([1]; 0.014%): 829 ± 171 ng/mL | cell viability, percent of untreated cells ([2]; 0.0014%): 130 ± 15% | cell viability, percent of untreated cells ([2]; 0.007%): 138 ± 9% | cell viability, percent of untreated cells ([2]; 0.014%): 145 ± 12% | cell viability, percent of untreated cells ([2]; 0.07%): 145 ± 11% | cell viability, percent of untreated cells ([2]; 0.14%): 154 ± 24% | effect on the number of viable cells [2]: strongly stimulate increases in the number of viable cells | number of viable cells greater than −UVB untreated cells [3]: 54% | MMP-1 Activity (MMP-1; 0.0014%): -0.01 ± 0.01 ng/mL | MMP-1 Activity (MMP-1; 0.007%): -0.02 ± 0.02 ng/mL | MMP-1 Activity (MMP-1; 0.014%): -0.03 ± 0.01 ng/mL | effect on MMP-1 activity (MMP-1): almost complete loss of detectable MMP-1 activity
